Test results: PMC5953937

Target: lipin 1 (UniProt Q14693)
Assay: co-immunoprecipitation (presumed)
Details: reference: wild-type Tip60; sites S86

## Tip60 (from UniProt Q92993) S86A-Tip60
  binding against the reference: weaker
